From patent publication US20200392203A1 (YEDA RESEARCH AND DEVELOPMENT, published 2020)

B1: soluble apical domain (sAD) of Neotoma albigula (White-throated woodrat) TfR1 (receptor)
chain: GSKIQVKCSAPNSVTITNASGGLYLVEYPEGYVAYSKATEVTGKLVHANFGTKKDFEDLDYAVNGSIVIVRAGKITIAEKVANAQSFNAIGVLIYKDRTKYPISRADEPLQGHSGLPSIPVQTISREAAEKLFQNMERDCPRSWNTDSSCKLELLQNRNVKLTVNNCLKE

Key:
[1] = molecular target: native spike complex (glycoprotein complex, GPC) of Junin virus (JUNV) (Junin virus (JUNV))
[2] = molecular target: native spike complex (glycoprotein complex, GPC) of Sabia virus (SABV) (Sabia virus (SABV))
Sequence of native spike complex (glycoprotein complex, GPC) of Sabia virus (SABV) (Sabia virus (SABV)) (Q90037 2-58, chain 1 of 3): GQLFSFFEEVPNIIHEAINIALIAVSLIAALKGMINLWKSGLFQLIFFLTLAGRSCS
Sequence of native spike complex (glycoprotein complex, GPC) of Sabia virus (SABV) (Sabia virus (SABV)) (Q90037 59-254, chain 2 of 3): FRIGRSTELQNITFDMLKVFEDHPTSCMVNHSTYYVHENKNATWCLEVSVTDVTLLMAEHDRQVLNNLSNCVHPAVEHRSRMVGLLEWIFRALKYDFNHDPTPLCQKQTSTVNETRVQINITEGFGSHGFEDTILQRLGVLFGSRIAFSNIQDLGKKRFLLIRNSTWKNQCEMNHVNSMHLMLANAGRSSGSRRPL
Sequence of native spike complex (glycoprotein complex, GPC) of Sabia virus (SABV) (Sabia virus (SABV)) (Q90037 255-488, chain 3 of 3): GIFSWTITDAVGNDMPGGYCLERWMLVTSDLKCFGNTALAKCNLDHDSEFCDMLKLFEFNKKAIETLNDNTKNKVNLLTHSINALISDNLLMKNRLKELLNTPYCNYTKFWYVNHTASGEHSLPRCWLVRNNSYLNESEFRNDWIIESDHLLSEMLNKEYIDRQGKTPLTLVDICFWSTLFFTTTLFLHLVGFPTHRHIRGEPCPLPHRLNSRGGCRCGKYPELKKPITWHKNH

[3] = molecular target: GP1WWAV-Fc (GP1 domain of Whitewater Arroyo virus fused at its C' terminus to an antibody Fc portion) (Whitewater Arroyo virus (WWAV)) (UniProt Q911P0); test: SPR (Biacore T200), single cycle kinetics; […]; 1:1 model
Sequence of GP1WWAV-Fc (GP1 domain of Whitewater Arroyo virus fused at its C' terminus to an antibody Fc portion) (Whitewater Arroyo virus (WWAV)) (Q911P0 87-241): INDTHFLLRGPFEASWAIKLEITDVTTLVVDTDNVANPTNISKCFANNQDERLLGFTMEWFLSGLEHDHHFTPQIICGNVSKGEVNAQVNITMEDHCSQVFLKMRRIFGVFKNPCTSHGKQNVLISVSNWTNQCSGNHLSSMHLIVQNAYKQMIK

[4] = molecular target: GP1GTOV-Fc (GP1 domain of Guanarito virus fused at its C' terminus to an antibody Fc portion) (Guanarito virus (GTOV)) (UniProt Q8AYW1); test: SPR (Biacore T200), single-cycle kinetics; […]; 1:1 model fit
Sequence of GP1GTOV-Fc (GP1 domain of Guanarito virus fused at its C' terminus to an antibody Fc portion) (Guanarito virus (GTOV)) (Q8AYW1 87-240): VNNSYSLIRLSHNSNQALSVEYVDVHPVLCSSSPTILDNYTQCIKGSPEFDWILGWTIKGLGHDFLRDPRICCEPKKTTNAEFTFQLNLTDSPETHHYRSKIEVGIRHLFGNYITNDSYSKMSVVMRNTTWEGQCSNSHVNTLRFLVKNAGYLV

Sequence of native spike complex (glycoprotein complex, GPC) of Junin virus (JUNV) (Junin virus (JUNV)) (P26313 2-58 limits assumed, chain 1 of 3): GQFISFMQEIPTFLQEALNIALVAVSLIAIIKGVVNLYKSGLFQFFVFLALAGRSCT
Sequence of native spike complex (glycoprotein complex, GPC) of Junin virus (JUNV) (Junin virus (JUNV)) (P26313 59-251 limits assumed, chain 2 of 3): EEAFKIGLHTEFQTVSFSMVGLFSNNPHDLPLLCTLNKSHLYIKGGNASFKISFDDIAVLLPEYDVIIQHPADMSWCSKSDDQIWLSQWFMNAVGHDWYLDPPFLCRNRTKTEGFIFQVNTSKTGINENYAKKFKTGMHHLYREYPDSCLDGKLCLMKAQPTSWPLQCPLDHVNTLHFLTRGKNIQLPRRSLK
Sequence of native spike complex (glycoprotein complex, GPC) of Junin virus (JUNV) (Junin virus (JUNV)) (P26313 252-485 limits assumed, chain 3 of 3): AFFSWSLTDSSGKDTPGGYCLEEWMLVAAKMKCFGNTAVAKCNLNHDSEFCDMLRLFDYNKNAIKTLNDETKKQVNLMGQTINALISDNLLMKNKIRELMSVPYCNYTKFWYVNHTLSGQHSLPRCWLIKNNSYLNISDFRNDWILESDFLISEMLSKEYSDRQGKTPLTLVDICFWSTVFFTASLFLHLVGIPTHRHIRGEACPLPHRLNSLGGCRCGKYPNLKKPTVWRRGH

| Molecule | pseudovirus neutralisation (luciferase, hTfR1-overexpressing HEK293 cells), IC50 [1] | pseudovirus neutralisation (luciferase, hTfR1-overexpressing HEK293 cells), IC50 [2] | Kd [3] | Kd [4] |
| --- | --- | --- | --- | --- |
| Arenacept (sAD fused at its C'-terminus to an Fc portion of IgG1) (Fc fusion) | 1.5 µg/mL | 3.5 µg/mL | – | – |
| B1 | – | – | 1000 nM | 360 nM |
